The target of the experiment is Orai1-GFP (UniProt Q96D31). In words: FRET or BRET. A general note: Bioluminescence resonance energy transfer reports proximity on the nanometre scale.

One substance from paper doi:10.1101/2020.03.25.005199 can be followed below.

Chain of UniProt Q96D31 (Q96D31 whole entry): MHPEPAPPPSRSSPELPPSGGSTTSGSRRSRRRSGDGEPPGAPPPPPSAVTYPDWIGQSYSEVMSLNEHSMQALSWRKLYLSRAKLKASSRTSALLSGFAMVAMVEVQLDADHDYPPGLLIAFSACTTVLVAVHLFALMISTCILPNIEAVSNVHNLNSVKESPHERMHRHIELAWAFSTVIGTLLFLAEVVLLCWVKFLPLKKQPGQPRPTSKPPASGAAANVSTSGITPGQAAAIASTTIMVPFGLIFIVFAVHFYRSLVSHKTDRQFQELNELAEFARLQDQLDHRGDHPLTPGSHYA

Turning to “STIM1A-mCherry (from UniProt Q13586) (natural protein)”, the E-FRET turned out to be 0.26.
